# Measurements taken from article PMC6971018.
# Tests used:
# [1] = target: His6x-CutF, purified (Klebsiella pneumoniae) (UniProt A6T4Z5); experiment: SEC; purified His6x-tagged core enzymes, alone and together, on the Superose 6 column
# [2] = target: cmcD (BMC-P shell protein) (Klebsiella pneumoniae); experiment: cryo-EM structure; small type cmcABC′ + cmcD + CutC_(336–1128) BDPs (gel filtration 90-100 ml), 1 mg/ml in 100 mM NaCl, 20 mM Tris-HCl pH 8.0; pT = 4 icosahedral map at 3.3 Å
stoichiometry N [1],stoichiometry N [2],Substance
4,,"His6x-CutF, purified (from UniProt A6T4Z5 1-239) (enzyme)"
,5,cmcD (BMC-P shell protein) (natural protein)
